Assay results from US7314724B2, “Therapeutic applications of laminin and laminin-derived protein fragments” (University of Washington, priority 1996, dated 2008).
Entries after “also recorded” stand apart in the source; their conditions may differ.

B1: ˜55 kilodalton (kDa) laminin fragment: ˜55 kDa Aβ-binding fragment from V8 or elastase digested mouse EHS laminin; within globular repeats of the laminin A chain (E3 region) (protein)
chain: HREHGELPPEPPTLPQPELCAVDTAPGYVAGAHQFGLSQNSHLVLPLNQSDVRKRLQVQLSIRTFASSGLIYYVAHQNQMDYATLQLQEGRLHFMFDLGKGRTKVSHPALLSDGKWHTVKTEYIKRKAFMTVDGQESPSVTVVGNATTLDVERKLYLGGLPSHYRARNIGTITHSIPACIGEIMVNGQQLDKDRPLSASAVDRCYVVAQEGTFFEGSGYAALVKEGYKVRLDLNITLEFRTTSKNGVLLGISSAKVDAIGLEIVDGKVLFHVNNGAGRITATYQPRAARALCDGKWHTLQAHKSKHRIVLTVDGNSVRAESPHTHSTSADTNDPIYVGGYPAHIKQNCLSSRASFRGCVRNLRLSRGSQVQSLDLSRAFDLQGVFPHSCPGPEP

What was measured:
Aβ (1-40) = molecular target: T1, Aβ (1-40) (Homo sapiens, UniProt P05067); assay: Thioflavin T fluorometry, Aβ (1-40) amyloid fibril formation; assay type: biochemical; details: comparison of basement membrane components (FIG. 3), 25 μM Aβ (1-40), 100 nM, 1 hour to 1 week
T1 construct: 2 μg of Aβ (1-40)(Bachem Inc., Torrance, Calif. USA; Lot #WM365); purchased Bachem Inc., Torrance, Calif; Lot #WM365
Protocol: The effects of laminin on Aβ fibrillogenesis was also determined using the previously described method of Thioflavin T fluorometry (Naiki et al, Lab. Invest. 65:104-110, 1991; Levine III, Protein Sci. 2:404-410, 1993; Levine III, Int. J. Exp. Clin. Invest. 2:1-6, 1995; Naiki and Nakakuki, Lab. Invest. 74:374-383, 1996). In this assay, Thioflavin T binds specifically to fibrillar amyloid and this binding produces a fluorescence enhancement at 480 nm that is directly proportional to the amount of amyloid fibrils formed (Naiki et al, Lab. Invest. 65:104-110, 1991; Levine III, Protein Sci. 2:404-410, 1993; Levine III, Int. J. Exp. Clin. Invest. 2:1-6, 1995; Naiki and Nakakuki, Lab. Invest. 74:374-383, 1996). In a first study, the effects of EHS laminin on Aβ (1-40) fibrillogenesis was assessed. For this study, 25 μM of freshly solubilized Aβ (1-40)(Bachem Inc., Torrance, Calif., USA; Lot #WM365) was incubated in microcentrifuge tubes at 37° C. for 1 week (in triplicate), either alone, or in the presence of 100 nM EHS laminin (Sigma Chemical Company, St. Louis, Mo., USA) in 100 mM Tris, 50 mM NaCl, pH 7.0 (TBS). 100 nM of laminin utilized for these studies represented a Aβ:laminin molar ratio of 250:1. 50 μl aliquots were then taken from each tube for analysis at 1 hr, 1 day, 3 days, and 1 week. In a second set of studies, the effects of laminin on Aβ (1 -40) fibril formation was directly compared to other basement membrane components including fibronectin, type IV collagen and perlecan. For these studies, 25 μM of freshly solubilized Aβ (1-40) was incubated in microcentrifuge tubes for 1 week (in triplicate) either alone, or in the presence of 100 nM of EHS perlecan (isolated as previously described)(Castillo et al, J. Biochem. 120:433-444, 1996), fibronectin (Sigma Chemical Company, St. Louis, Mo., USA) or type IV collagen (Sigma Chemical Company, St. Louis, Mo., USA). 50 ul aliquots were then taken for analysis at 1 hour, 1 day, 3 days and 1 week. In a third set of studies, 25 μM of freshly solubilized Aβ (1-40) was incubated in microcentrifuge tubes for 1 week (in triplicate) either alone, or in the presence of increasing concentrations of laminin (i.e. 5 nM, 15 nM, 40 nM and 100 nM). 50 μl aliquots were taken for analysis at 1 hour, 1 day, 3 days and 1 week.
For each determination described above, following each incubation period, Aβ peptides +/− laminin, perlecan, fibronectin or type IV collagen, were added to 1.2 ml of 100 μM Thioflavin T (Sigma Chemical Co., St. Louis, Mo.) in 50 mM phosphate buffer (pH 6.0). Fluorescence emission at 480 nm was measured on a Turner instrument-model 450 fluorometer at an excitation wavelength of 450 nm. For each determination, the fluorometer was calibrated by zeroing in the presence of the Thioflavin T reagent alone, and by seting the 50 ng/ml riboflavin (Sigma Chemical Co., St. Louis, Mo.) in the Thioflavin T reagent to 1800 fluorescence units. All fluorescence determinations were based on these references and any background fluorescence given off by laminin, perlecan, type IV collagen, or fibronectin alone in the presence of the Thioflavin T reagent was always subtracted from all pertinent readings.

biotinylated Aβ (1-40) = molecular target: T2, biotinylated Aβ (1-40) (Homo sapiens, UniProt P05067); assay: Aβ ligand blot of undigested and V8-, trypsin- or elastase-digested EHS laminin; assay type: binding; details: 2 μM biotinylated Aβ (1-40), SDS-PAGE under non-reducing conditions
T2 construct: Aβ (1-40) was biotinylated according to the manufacturer's protocol (Pierce, Rockford, Ill.)
Protocol: For these experiments, Aβ (1-40) was biotinylated according to the manufacturer's protocol (Pierce, Rockford, Ill.). For the ligand studies, intact EHS laminin was left undigested, or digested with V8 or trypsin (Sigma Chemical Company, St. Louis, Mo., USA). More specifically, 2 μg of trypsin or V8 protease in 2 μl of 50 MM Tris-HCl buffer (pH 8.0) were added to 50 μl of laminin (50 μg)(in the same buffer) and incubated overnight at 37° C. The next day, 10 μl of protease-digested laminin (or undigested laminin) was mixed with 10 μl of 2× sodium dodecyl sulfate polyacrylamide gel electrophoresis (SDS-PAGE) sample buffer, and heated for 5 minutes in a boiling water bath. SDS-PAGE was performed according to the method of Laemmli (Laemmli, U.K. Nature 227:680-685, 1970), or according to the method of Schägger and Jagow (Schägger and Jagow, Anal. Biochem. 166:368-379, 1987) using a Mini-Protean II electrophoresis system (Biorad) with precast 4-15% Tris-Glycine or 10-20% tricine polyacrylamide gels, respectively, and under non-reducing conditions. Electrophoresis occurred at 200V for 45 minutes along with pre-stained molecular weight standards. After SDS-PAGE (10-20% tricine or 4-15% Tris-Glycine gels) was performed as described above, the separated laminin and its fragments (total protein of 10 μg/lane) were transferred to polyvinylidine difluoride membrane (PVDF) using a Mini transblot electrophoresis transfer cell (Biorad, Hercules, Calif., U.S.A.). Electrotransfer was performed at 100V for 2 hours. Following transfer, membranes were rinsed with methanol and dried. The fragment(s) of laminin involved in binding to Aβ were then detected by using biotinylated-Aβ (1-40), as described above. Blots were probed for 2 hours with 2 μM biotinylated Aβ (1-40) in TTBS. The membranes were then rinsed three times (10 seconds each) with TTBS, probed for 30 minutes with strepavidin alkaline phosphatase conjugate (Vectastain), rinsed again (as described above), and followed by the addition of an alkaline phosphatase substrate solution (Vectastain). Following color development, the reaction was stopped by flushing the membranes with double distilled water. In the next set of studies, we determined whether small fragment(s) of laminin generated by elastase digestion would bind to Aβ. […] For these experiments, Aβ (1-40) was biotinylated according to the manufacturer's protocol (Pierce, Rockford, Ill.). For the ligand studies, intact EHS laminin was left undigested, or digested with elastase (Sigma Chemical Company, St. Louis, Mo., USA). For elastase digestion, 2 μg of elastase in 8 μl of 50 mM Tris-HCl buffer (pH 8.0) was added to 50 μl of laminin (50 μg)(in the same buffer) and incubated for 1.5 hours or 2.5 hours at 37° C. In addition, as a control, 2 μg of elastase in 50 μl of 50 mM Tris-HCl buffer (pH 8.0) was incubated for 2.5 hours at 37° C. Following the appropriate incubation times as described above, 10 μl of each of the above incubations were mixed with 10 μl of 2× SDS-PAGE electrophoresis sample buffer, and heated for 5 minutes in a boiling water bath. SDS-PAGE was performed according to the method of Laemmli (Laemmli, Nature 227:680-685, 1970) using a Mini-Protean II electrophoresis system with precast 4-15% Tris-Glycine polyacrylamide gels, and under non-reducing conditions. Electrophoresis occurred at 200V for 45 minutes along with pre-stained molecular weight standards (Biorad). After SDS-PAGE was performed as described above, the separated laminin fragments were transferred to PVDF using a Mini transblot electrophoresis transfer cell (Millipore, Bedford, Mass., U.S.A.). Electrotransfer was performed at 100V for 2 hours. Following transfer, membranes were rinsed with methanol, dried and cut into two equal parts which were used for Aβ ligand blotting, or Coomassie blue staining and subsequent amino acid sequencing. The fragment(s) of laminin involved in binding to Aβ were then detected by using biotinylated-Aβ (1-40), as described above. […]

T1 sequence (P05067 672-711 limits assumed): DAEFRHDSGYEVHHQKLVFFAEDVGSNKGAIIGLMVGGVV
T2 sequence (P05067 672-711 limits assumed): as above

Row | Molecule | effect on Aβ (1-40) fibrillogenesis, in words (Aβ (1-40)) | effect on Aβ (1-40) fibrillogenesis, in words (Aβ (1-40); listed as Perlecan) | interaction with biotinylated Aβ (1-40) on ligand blot, in words (biotinylated Aβ (1-40)) | interaction with biotinylated Aβ (1-40) on ligand blot, in words (biotinylated Aβ (1-40); listed as 55 kDa laminin fragment) | interaction with biotinylated Aβ (1-40) on ligand blot, in words (biotinylated Aβ (1-40); listed as ˜55 kDa) | interaction with biotinylated Aβ (1-40) on ligand blot, in words (biotinylated Aβ (1-40); listed as ˜55 kilodalton fragment) | interaction with biotinylated Aβ (1-40) on ligand blot, in words (biotinylated Aβ (1-40); listed as ˜55 kilodalton laminin fragment)
1 | fibronectin [reference compound] | not effective inhibitors; also recorded: only showed significant inhibition of Aβ (1-40) fibrillogenesis at 1 week |  |  |  |  |  | 
2 | perlecan: EHS perlecan, basement membrane component used as comparison [reference compound] | not effective inhibitors | significantly accelerate Aβ (1-40) amyloid formation at 1 day and 3 days |  |  |  |  | 
3 | B1 |  |  | interact with biotinylated Aβ (1-40) | positive Aβ binding interaction | interacted with Aβ (1-40) | interacts with Aβ | binds biotinylated Aβ
